Experimental data published in the RNAGym collection of RNA variant scans (doi:10.1073/pnas.2313332121).

B1: TPR t1 (parent)
chain: GACCAAUCUGCCCUCAGAGCUCGAGAACAUCUUCGGAUGCAGAGGAGGCAGGCUUCGGUGGCGCGAUAGCGCCAACGUCCUCAACCUCCAAUGCAUCCCACCACAUGAUGAUGCCUGAAGAGCCUUGGUUUUUUG

Variants of: B1
Assay: polymerase ribozyme fitness, log enrichment relative to wild type (log ratio); higher = more active; in vitro selection for triplet polymerase activity
How it was run: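 A single round of triplicate in vitro selection, including frozen incubation at −7 °C, was applied to PCR-built, transcribed mutant libraries of each subunit of a heterodimeric triplet polymerase ribozyme. Illumina sequencing of input and output libraries retained genotypes with ≥10 input reads and ≥1 read per output. Fitness is the base-2 logarithm of genotype enrichment divided by wild-type enrichment, from inverse-variance-weighted replicate averages.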

Compared with GACCAAUCUGCCCUCUGAGCUCGAGAACAUCUUCGGAUGCAGAGGAGGCAGGCUUCGGUGGCGCGAUAGCGCCAACGUCCUCAACCUCCAAUGCAUCCCACCACAUGAUGAUGCCUGAAGAGCCUUGGUUUUUUU [A16U G135U], GACCAAUCUGCCCUCUGAGCUCGAGAACAUCUUCGGAUGCAGAGGAGGCAGGCUUCGGUGGCGCGAUAGCGCCAACGUCCUCAACCUCCAAUGCAUCCCACCACAUUAUGAUGCCUGAAGAGCGUUGGUUUUUUG [A16U G107U C124G] is lower in “polymerase ribozyme fitness (log ratio)” value: -1.8 for the first, -4.06 for the second.

First: GACCAAUCUGCCCUCUGAGCUCGAGAACAUCUUCGGAUGCAGAGGAGCCAGGCUUCGGCGGCGCGAUAGCGCCAACGUCCUCAACCUCCAAUGCAUCCCACCACAUGAUGAUGCCUGAAGAGCCUCGGUUUUUUG [A16U G48C U59C U126C]
Second: GACCAAUCUGCCCUCUGAGCUCGAGAACAUCUUCGGAUGCAGAGGAGGCAGGCUUCGGUGGCGCGAUAGCUCCAACGUCCUCAACCUCCAAUGCAUCCCACCACAUGAUGAUGCCUGAAGAGCCUUGGUUUUUUG [A16U G71U]
The “polymerase ribozyme fitness (log ratio)” value of the first is lower: -2.91 for the first, -0.858 for the second.

Going from GACCAAUCUGCCCUCUGAGCUCGAGAACAUCUUCGGAUGCAGAGGAGCCAGGCUUCGGUGGCGCGAUAGCGCCAACGUCCUCAACCUCCAAUGCAUCCCACCACAUGAUGAUGCCUGAAAAGCCUUGGUUUUUUG [A16U G48C G120A] to GACCAAUCUGCCCUCUGAGCUCGAGAACAUCUUCGGAUGCAGAGGAGGCAGGCUUCGGUGGCGCGAUAGCGCCAACGUCCUCAACCUCCAAUGCAUCCCACCACAUGAUGAUGCCUAAAGAGCCUUGGUUUUUUG [A16U G117A], the “polymerase ribozyme fitness (log ratio)” value falls from -1.64 to -2.22.

First: GACCAAUCUGCCCUCUGAGCUCGAGAACAUCUUCGGAUGCAGAGGAGGCAGGCUUCGGUGGCGCGAUAGCGCCAACGUCCUCAACCUCCAAUGCAUCCCACCACAUGAUGAUGCCUUAAGAGCCUUGGUUUUUUG [A16U G117U]
Second: GACCAAUCUGCCCUCUGAGCUCGAGAACAUCUUCGGAUGCAGAGGAGGCAGGCUUCGGUUGCGCGAUAGCGCCAACGUCCUCAACCGCCAAUGCAUCCCACCACAUGAUGAUGCCUGAAGAACCUCGGUUUUUUG [A16U G60U U87G G122A U126C]
The “polymerase ribozyme fitness (log ratio)” value of the first is higher: -2.04 for the first, -3.42 for the second.

Going from GACCAAUCUGCCCUCUGAGCUCGAGAACAUCUUCGAAUGCUGAGGAGGCAGGCUUCGGUGGCGCGAUAGCGCAAACGUCCUCAACCUCCAAUGCAUCCCACCACAUGAUGAUGCCUGAAGAGCCUUGGUUUUUUG [A16U G36A A41U C73A] to GACCAAUCUGCCCUCUGAGCUCGAGAACAUCUUCGGAUGCAGAGGAGGCAGGCUUCUGUGGCGCGAUAGCGCCAACGUCCUCAACCUCCAAUGCAUCCCACCACAUGAUGAUGCCUGAAGAGCCUUGGUUUUUUG [A16U G57U], the “polymerase ribozyme fitness (log ratio)” value rises from -4.17 to -1.91.

Going from GACCAAUCUGCCCUCUGAGCUCGAGAACAUCUUCGGAUGCAGAGGAGGCAGGCUUCGGUGGCGCGAUAGCGCCAACGACCUCAACCUCCAAAGCAUCCCACCACAUGAUGAUGCCUGAAGAGCCUUGGUUUUUUG [A16U U78A U92A] to GACCAAUCUGCCCUCUGAGCUCGAGAACAUCUUCGGAUGCAGAGGAGGCAGGCUUCGUUGGCGCGAUAGCGCCAACGUCCUCAACCUCCAAUGCAUCCCACCACAUGAUGAUGCCUGAAGAGACUUGGUUUUUUG [A16U G58U C123A], the “polymerase ribozyme fitness (log ratio)” value rises from -4.78 to -2.18.

First: GACCAAUCUGCCCUCUGAGCGCGAGAACAUCUUCGGAUGCAGAGGAGGCAGGCUUCGGUGGCGCGAUAGCGCCAACGUCCUCAACCUCCAAUGCAUCCCACCACAUGAUGAUGUCUGAAGAGCCUUGGUUUUUUG [A16U U21G C114U]
Second: GACCAAUCUGCCCUCUGAGCUCGAGAACAUCUUCGGAUGCAGAGCAGGCAGGCUUGGGUGGCGUGAUAGCGCCAACGUCCUCCACCUCCAAUGCAUCCCACCACAUGAUGAUGCCUGAAGAGCCUUGGUUUUUUG [A16U G45C C56G C64U A83C]
The “polymerase ribozyme fitness (log ratio)” value of the first is lower: -4.99 for the first, -4.1 for the second.

Going from GACCAAUCUGCCCUCUGAGCUCGAGAACAUCUUCGGAUGCAUAGGAGGCAGGCUUCGGUGGCGCGAUAGCGCCAACGUCCUCAACCUCCAAUGCAUCCCACCACAUGAUGAUGCCUGAAGAGCCUUGGUUUUUUG [A16U G42U] to GACCAAUCUGCCCUCUGAGCUCGAGAACAUCUUCGGAUGCAGAGGAGGCAGGCUUCGGUGGCGCGAUAGCGCCAACGUCCUCAACCUCCAAUGCAUCCCACCACAUGAUGAUUCCUGAAGAGCCUUGGUUUUUUG [A16U G113U], the “polymerase ribozyme fitness (log ratio)” value falls from -2.52 to -4.23.

First: GACCAAUCUGCCCUCUGAGCUCGAGAACAUCUUCGGAUGCAGAGGAGGCAGGCUUCGGUAGUGCGAUAGCGCCAACGUCCUCAACCUCCAAUGCAUCCCACCACAUGAUGACGCCUGAAGAGCCUUGGUUUUUUG [A16U G60A C62U U112C]
Second: GACCAAUCUGCCCUCUGAGCUCGAGAACAUCUUCGGAUGCAGAGAAGGCAGGCUUCGGUGUCGCGAUAGCGCCAACGUCCUGAACCUCCAAUGCAUCCCACCACAUGAUGAUGCCUGAAGAGCCUUGGUUUUUUG [A16U G45A G61U C82G]
The “polymerase ribozyme fitness (log ratio)” value of the first is higher: -0.401 for the first, -1.81 for the second.

Going from GACCAAUCUGCCCUCUCAGCUCGAGAACAUCUUCGGAUGCAGAGGAGGCAGGCUUCGGUGGCGCGAUAGCGCCAACGUCCUCAACCUCCAAUGCAUCCCACCACAUGAUGAUGUCUGAAGAGCCUUGGUUUUUUG [A16U G17C C114U] to GACCAAUCUGCCCUCUGAGCUCGAGAACAUCUUCGGAUGCAGAGGAGGCAGGCUUCGGUGCCGCGAUAGCGCCAACGUCCUCAACCUCCAAUGCAUCCCACCACAUGAUGAUGCCUGAAGAGCCUUGGUUUUUUG [A16U G61C], the “polymerase ribozyme fitness (log ratio)” value falls from -1.76 to -2.41.

With GACCAAUCUGCCCUCUGAGCUCGAGAACAUCUUCGGAUGCAGAGGAGGCAGGCUUCGGUGUCGCGAUAGCGCCAACGUCCUCAACCUCCAAUGCAUCCCACCACAUGAUGAUGCCUGAAGAGCCUUGGUUUUUUG [A16U G61U] the “polymerase ribozyme fitness (log ratio)” value was -1.11.
